In paper PMC9687680 (2022) one finds binding, KD and Kd data, which are given here for three molecules.

The test system of data set [1] is CD133 aptamer (hybrid RNA-DNA, 10-bp DNA GC stem) (DNA:RNA, aptamer, 2'-fluoro on all pyrimidines (C and U) of the RNA part; 5-methyl-dC (printed 5'-methyl-dC) in the DNA stem) CGCGCGCCGCUCCUACAUAGCGGCGCGCG
Put plainly: DOX fluorescence quenching. As to conditions: DOX 10 µM, aptamer 1-10 µM, 30 min; >90% quenching at aptamer:DOX 0.27.

For data set [2] the test system is unchanged. Put plainly: ITC. The following applies: Mg2+ 2.5 mM, PBS (Na+, K+), 25 °C, DOX 100 µM injected, aptamer 2 µM or 100 µM (supplement).
Data set [3] deals with T1, CD133 on PLC/PRF/5 cells (human) (UniProt O43490).
T1 sequence: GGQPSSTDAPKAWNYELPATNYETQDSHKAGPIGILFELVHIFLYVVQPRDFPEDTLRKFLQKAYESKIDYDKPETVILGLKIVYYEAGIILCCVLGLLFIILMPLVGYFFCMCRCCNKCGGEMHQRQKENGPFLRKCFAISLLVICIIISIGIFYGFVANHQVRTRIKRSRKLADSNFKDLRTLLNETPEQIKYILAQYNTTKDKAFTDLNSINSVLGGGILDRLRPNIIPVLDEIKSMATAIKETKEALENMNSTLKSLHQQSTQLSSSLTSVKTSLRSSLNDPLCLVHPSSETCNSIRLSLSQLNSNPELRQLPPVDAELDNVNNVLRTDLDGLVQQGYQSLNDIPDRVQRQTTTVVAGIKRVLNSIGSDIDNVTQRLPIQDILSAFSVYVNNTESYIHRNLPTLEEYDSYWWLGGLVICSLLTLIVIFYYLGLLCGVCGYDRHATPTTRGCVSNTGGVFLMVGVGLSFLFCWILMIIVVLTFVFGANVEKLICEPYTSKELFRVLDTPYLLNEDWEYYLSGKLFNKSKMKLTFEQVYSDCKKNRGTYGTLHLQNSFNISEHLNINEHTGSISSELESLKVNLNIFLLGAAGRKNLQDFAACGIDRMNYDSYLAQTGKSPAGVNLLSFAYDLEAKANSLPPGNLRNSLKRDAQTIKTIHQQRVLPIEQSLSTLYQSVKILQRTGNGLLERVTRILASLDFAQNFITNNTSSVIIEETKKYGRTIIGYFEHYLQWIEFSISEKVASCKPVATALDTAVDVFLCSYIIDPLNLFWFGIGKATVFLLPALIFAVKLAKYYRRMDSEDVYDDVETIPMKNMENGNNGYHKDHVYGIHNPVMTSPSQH
Put plainly: flow cytometry (cell binding). The following applies: PLC/PRF/5 cells, 37 C, Aptamer folded in PBS with 2.5 mM Mg2+ (85 C 5 min, RT, 37 C 15 min), binding to cells in PBS-based blocking buffer, 30 min, CD133-negative HEK293T cells …. In general terms: Flow cytometry measures light scatter and fluorescence of single cells or particles in a stream.

In data set [4] the target is T2, CD133 on Huh7 cells (human) (UniProt O43490).
T2 sequence: T1 sequence
Put plainly: flow cytometry (cell binding). As to conditions: Huh7 cells, 37 C, Aptamer folded in PBS with 2.5 mM Mg2+ (85 C 5 min, RT, 37 C 15 min), binding to cells in PBS-based blocking buffer, 30 min, CD133-negative HEK293T cells ….

Where [5] appears, read: apparent Kd, 2'-fluoro on all pyrimidines, 5-methyl-dC in stem, hexylamine cap at 3' end.
The mark [6] stands for this setting: 2'-O-methyl instead of 2'-fluoro on pyrimidines (C and U).

For the molecule `COc1cccc2c1C(=O)c1c(O)c3c(c(O)c1C2=O)C[C@@](O)(C(=O)CO)C[C@@H]3O[C@H]1C[C@H](N)[C@H](O)[C@H](C)O1`, the binding entry in data set [1] is “yes”. Besides, the KD in data set [2] was 634 nM.
For “CGCGCGCCGCUCCUACAUAGCGGCGCGCG [CD133 aptamer (RNA loop, DNA GC stem)]”, the Kd in data set [3] (setting [5]) amounted to 11 nM; in data set [4] (setting [5]), 27 nM.
For “CGCGCGCCGCUCCUACAUAGCGGCGCGCG [negative control CD133 aptamer (2'-OMe)]”, the Kd in data set [3] (setting [6]) and in data set [4] (setting [6]) was above 1000 nM each time.

By KD is commonly meant a measure of binding affinity in units of concentration. The low end stands for tighter binding, the high end for weaker binding.
